Measurements reported in patent US20260207759A1 (SUZHOU SUNCADIA BIOPHARMACEUTICALS, published 2026).
Where two headings read alike, the source gives them in different places.

Experiments:
[1] = biological target: T1, human CD40 on the cell surface (Raji cells, HEK-Blue CD40L cells, primary human B cells and DCs) (human, UniProt P25942 21-277); assay: cell-based or functional assay
[2] = biological target: human FcRn antigen (purchased from AcroBiosystem) (human, UniProt P55899 24-297; P61769 21-119); assay: SPR (Biacore), antibody captured on anti-human Fab chip, human FcRn as analyte, steady state model
Sequence of human FcRn antigen (purchased from AcroBiosystem) (P55899 24-297 limits assumed, chain 1 of 2): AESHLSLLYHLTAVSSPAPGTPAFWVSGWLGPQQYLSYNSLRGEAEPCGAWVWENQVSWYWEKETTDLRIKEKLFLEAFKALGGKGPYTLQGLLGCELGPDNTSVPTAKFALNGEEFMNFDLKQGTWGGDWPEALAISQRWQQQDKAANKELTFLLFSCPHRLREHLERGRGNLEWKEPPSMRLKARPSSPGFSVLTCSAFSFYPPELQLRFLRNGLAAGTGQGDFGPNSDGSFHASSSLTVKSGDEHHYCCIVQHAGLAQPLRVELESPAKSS
Sequence of human FcRn antigen (purchased from AcroBiosystem) (P61769 21-119 limits assumed, chain 2 of 2): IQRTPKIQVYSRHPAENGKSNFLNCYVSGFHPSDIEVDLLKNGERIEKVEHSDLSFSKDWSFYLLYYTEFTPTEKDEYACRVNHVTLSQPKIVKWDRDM

[3] = biological target: T1, human CD40 on the cell surface (Raji …); assay: cell-based or functional assay; remark: listed apart in the source
[4] = biological target: T2, his-tagged cynomolgus monkey CD40 recombinant protein (cyno-CD40-his, Acrobiosystems Cat. #CD0-C52H6) (cynomolgus monkey); assay: SPR (Biacore), antibody captured on anti-human Fc chip, His-tagged CD40 as analyte, 1:1 model
T2 construct: Purchased reagent

[5] = biological target: T3, his-tagged human CD40 recombinant protein (h-CD40-his, Acrobiosystems Cat. #CD0-H5228) (human, UniProt P25942 21-193); assay: as above
T3 construct: Purchased reagent; also called His-tagged human CD40 antigen; not shown: His tag
T3 sequence (P25942 21-193 limits assumed): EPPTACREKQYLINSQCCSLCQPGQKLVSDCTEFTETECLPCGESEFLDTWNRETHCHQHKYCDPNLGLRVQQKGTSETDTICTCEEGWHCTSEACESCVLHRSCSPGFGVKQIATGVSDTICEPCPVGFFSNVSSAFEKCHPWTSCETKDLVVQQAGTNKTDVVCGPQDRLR

[6] = biological target: T1, human CD40 on the cell surface (Raji …); assay: cell-based or functional assay; remark: listed apart in the source
[7] = biological target: T1, human CD40 on the cell surface (Raji …); assay: flow cytometry (FACS) binding to Raji cells
[8] = biological target: T1, human CD40 on the cell surface (Raji …); assay: cell-based or functional assay; remark: listed apart in the source
[9] = biological target: T2, his-tagged cynomolgus monkey CD40 …; assay: SPR (Biacore), antibody captured on anti-human Fc chip, His-tagged CD40 as analyte, 1:1 model; remark: listed apart in the source
[10] = biological target: T3, his-tagged human CD40 recombinant …; assay: as above; remark: listed apart in the source
[11] = biological target: T1, human CD40 on the cell surface (Raji …); assay: cell-based or functional assay; remark: listed apart in the source
[12] = biological target: T1, human CD40 on the cell surface (Raji …); assay: flow cytometry (FACS) binding to Raji cells; remark: listed apart in the source

T1 sequence (P25942 21-277): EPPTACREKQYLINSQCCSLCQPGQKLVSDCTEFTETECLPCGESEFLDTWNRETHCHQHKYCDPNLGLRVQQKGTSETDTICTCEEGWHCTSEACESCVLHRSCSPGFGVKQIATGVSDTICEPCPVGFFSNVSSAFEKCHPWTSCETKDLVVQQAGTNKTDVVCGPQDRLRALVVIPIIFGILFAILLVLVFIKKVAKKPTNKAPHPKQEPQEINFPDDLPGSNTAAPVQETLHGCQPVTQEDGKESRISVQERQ

B1: 9E6-L4H2 humanized anti-CD40 antibody (antibody, human IgG1, kappa, N297A)
heavy: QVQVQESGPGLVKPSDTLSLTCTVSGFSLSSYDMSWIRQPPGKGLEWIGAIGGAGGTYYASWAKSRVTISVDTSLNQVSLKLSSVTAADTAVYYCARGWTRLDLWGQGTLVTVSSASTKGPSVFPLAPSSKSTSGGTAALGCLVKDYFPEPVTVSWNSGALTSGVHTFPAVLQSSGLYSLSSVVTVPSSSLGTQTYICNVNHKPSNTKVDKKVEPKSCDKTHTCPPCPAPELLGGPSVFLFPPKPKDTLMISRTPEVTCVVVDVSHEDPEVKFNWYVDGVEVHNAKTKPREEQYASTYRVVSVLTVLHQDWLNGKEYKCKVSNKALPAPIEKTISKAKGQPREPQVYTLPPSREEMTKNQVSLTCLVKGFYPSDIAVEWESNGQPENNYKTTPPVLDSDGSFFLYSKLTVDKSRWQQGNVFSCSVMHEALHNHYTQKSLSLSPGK
light: DIQLTQSPSFLSASVGDRVTITCQASEDISSNLAWYQQKPGKPPKLLIFPASNLASGVPSRFSGSGSGTEFTLTISSLQPEDFATYYCQGGYWTSTSNFGQGFGGGTKVEIKRTVAAPSVFIFPPSDEQLKSGTASVVCLLNNFYPREAKVQWKVDNALQSGNSQESVTEQDSKDSTYSLSSTLTLSKADYEKHKVYACEVTHQGLSSPVTKSFNRGEC
notes: human IgG1 N297A (Eu) heavy chain and kappa light chain
[1]
  B cell activation assay, CD19+CD69+%, Donor 1, IC50: 0.44 nM
  B cell activation assay, CD19+CD69+%, Donor 2, IC50: 0.52 nM
[2]
  Kd: 293 nM
[3]
  B cell activation assay, CD19+CD69+ %, IC50: 0.14 nM
  B cell activation assay, CD19+CD69+ MFI, IC50: 0.07 nM
[4]
  Kd: 0.294 nM
  koff: 0.000138 s⁻¹
  kon: 468000 M⁻¹ s⁻¹
[5]
  Kd: 0.926 nM
  koff: 0.000377 s⁻¹
  kon: 407000 M⁻¹ s⁻¹
[6]
  IC50 for the inhibition of CD40 reporter gene cell activity (Experiment 2): 0.5 nM
[7]
  EC50: 0.87 nM
[8]
  IC50 in DC cell activation assay system, CD80 MFI: 3.44 nM
  IC50 in DC cell activation assay system, CD86 MFI: 3.72 nM
  IC50 in DC cell activation assay system, IL-12/23 p40: 1.85 nM
  IC50 in DC cell activation assay system, TNFα: 0.7 nM
[9]
  Kd: 0.121 nM
  koff: 6.23e-05 s⁻¹
  kon: 514000 M⁻¹ s⁻¹
[10]
  Kd: 0.536 nM
  koff: 0.000221 s⁻¹
  kon: 413000 M⁻¹ s⁻¹

B2: 9E6-L4H2-AAYTE anti-CD40 antibody (IgG1 with L234A, L235A, M252Y, S254T, T256E) (antibody)
heavy: QVQVQESGPGLVKPSDTLSLTCTVSGFSLSSYDMSWIRQPPGKGLEWIGAIGGAGGTYYASWAKSRVTISVDTSLNQVSLKLSSVTAADTAVYYCARGWTRLDLWGQGTLVTVSSASTKGPSVFPLAPSSKSTSGGTAALGCLVKDYFPEPVTVSWNSGALTSGVHTFPAVLQSSGLYSLSSVVTVPSSSLGTQTYICNVNHKPSNTKVDKKVEPKSCDKTHTCPPCPAPEAAGGPSVFLFPPKPKDTLYITREPEVTCVVVDVSHEDPEVKFNWYVDGVEVHNAKTKPREEQYNSTYRVVSVLTVLHQDWLNGKEYKCKVSNKALPAPIEKTISKAKGQPREPQVYTLPPSREEMTKNQVSLTCLVKGFYPSDIAVEWESNGQPENNYKTTPPVLDSDGSFFLYSKLTVDKSRWQQGNVFSCSVMHEALHNHYTQKSLSLSPGK
light: DIQLTQSPSFLSASVGDRVTITCQASEDISSNLAWYQQKPGKPPKLLIFPASNLASGVPSRFSGSGSGTEFTLTISSLQPEDFATYYCQGGYWTSTSNFGQGFGGGTKVEIKRTVAAPSVFIFPPSDEQLKSGTASVVCLLNNFYPREAKVQWKVDNALQSGNSQESVTEQDSKDSTYSLSSTLTLSKADYEKHKVYACEVTHQGLSSPVTKSFNRGEC
[2]
  Kd: 39.8 nM

B3: 9E6-L2H1 humanized anti-CD40 antibody (antibody, human IgG1, V domains shown)
VH: EVQLQESGPGLVKPSDTLSLTCTVSGFSLSSYDMSWIRQPPGKGLEWIGAIGGAGGTYYASWAKSRVTISVDTSLNQVSLKLSSVTAADTAVYYCARGWTRLDLWGQGTLVTVSS
VL: DIQLTQSPSFLSASVGDRVTITCQASEDISSNLAWYQQKPGKPPKLLIFPASNLASGVPSRFSGSGSGTEFTLTISSLQPEDFATYYCQGGYWTSTSNFGSGFGGGTKVEIK
[7]
  EC50: 1.99 nM

B4: 9E6-L3H1 humanized anti-CD40 antibody (antibody, human IgG1, V domains shown)
VH: EVQLQESGPGLVKPSDTLSLTCTVSGFSLSSYDMSWIRQPPGKGLEWIGAIGGAGGTYYASWAKSRVTISVDTSLNQVSLKLSSVTAADTAVYYCARGWTRLDLWGQGTLVTVSS
VL: DIQLTQSPSFLSASVGDRVTITCQASEDISSNLAWYQQKPGKPPKLLIFPASNLASGVPSRFSGSGSGTEFTLTISSLQPEDFATYYCQGGYWTSTSNFGTGFGGGTKVEIK
[7]
  EC50: 1.06 nM

B5: 9E6-L4H1 humanized anti-CD40 antibody (antibody, human IgG1, V domains shown)
VH: EVQLQESGPGLVKPSDTLSLTCTVSGFSLSSYDMSWIRQPPGKGLEWIGAIGGAGGTYYASWAKSRVTISVDTSLNQVSLKLSSVTAADTAVYYCARGWTRLDLWGQGTLVTVSS
VL: DIQLTQSPSFLSASVGDRVTITCQASEDISSNLAWYQQKPGKPPKLLIFPASNLASGVPSRFSGSGSGTEFTLTISSLQPEDFATYYCQGGYWTSTSNFGQGFGGGTKVEIK
[7]
  EC50: 0.928 nM

B6: 9E6-L3H2 humanized anti-CD40 antibody (antibody, human IgG1, V domains shown)
VH: QVQVQESGPGLVKPSDTLSLTCTVSGFSLSSYDMSWIRQPPGKGLEWIGAIGGAGGTYYASWAKSRVTISVDTSLNQVSLKLSSVTAADTAVYYCARGWTRLDLWGQGTLVTVSS
VL: DIQLTQSPSFLSASVGDRVTITCQASEDISSNLAWYQQKPGKPPKLLIFPASNLASGVPSRFSGSGSGTEFTLTISSLQPEDFATYYCQGGYWTSTSNFGTGFGGGTKVEIK
[7]
  EC50: 1.15 nM

B7: 9E6-L1H1 humanized anti-CD40 antibody (antibody, human IgG1, V domains shown)
VH: EVQLQESGPGLVKPSDTLSLTCTVSGFSLSSYDMSWIRQPPGKGLEWIGAIGGAGGTYYASWAKSRVTISVDTSLNQVSLKLSSVTAADTAVYYCARGWTRLDLWGQGTLVTVSS
VL: DIQLTQSPSFLSASVGDRVTITCQASEDISSNLAWYQQKPGKPPKLLIFPASNLASGVPSRFSGSGSGTEFTLTISSLQPEDFATYYCQGGYWTSTSNFGNVFGGGTKVEIK
[7]
  EC50: 1.08 nM

B8: 9E6-L2H2 humanized anti-CD40 antibody (antibody, human IgG1, V domains shown)
VH: QVQVQESGPGLVKPSDTLSLTCTVSGFSLSSYDMSWIRQPPGKGLEWIGAIGGAGGTYYASWAKSRVTISVDTSLNQVSLKLSSVTAADTAVYYCARGWTRLDLWGQGTLVTVSS
VL: DIQLTQSPSFLSASVGDRVTITCQASEDISSNLAWYQQKPGKPPKLLIFPASNLASGVPSRFSGSGSGTEFTLTISSLQPEDFATYYCQGGYWTSTSNFGSGFGGGTKVEIK
[7]
  EC50: 1.66 nM

B9: 9E6-L1H2 humanized anti-CD40 antibody (antibody, human IgG1, V domains shown)
VH: QVQVQESGPGLVKPSDTLSLTCTVSGFSLSSYDMSWIRQPPGKGLEWIGAIGGAGGTYYASWAKSRVTISVDTSLNQVSLKLSSVTAADTAVYYCARGWTRLDLWGQGTLVTVSS
VL: DIQLTQSPSFLSASVGDRVTITCQASEDISSNLAWYQQKPGKPPKLLIFPASNLASGVPSRFSGSGSGTEFTLTISSLQPEDFATYYCQGGYWTSTSNFGNVFGGGTKVEIK
[7]
  EC50: 1.05 nM

B10: 9E6 human-rabbit chimeric anti-CD40 antibody (antibody, V domains shown)
VH: QSVRESEGGLVKPTDTLTLTCTVSGFSLSSYDMSWVRQAPGNGLEWIGAIGGAGGTYYASWAKSRSTITRNTNLNTVTLKMSSLTAADTATYFCARGWTRLDLWGQGTLVTVSS
VL: DIVLTQTPSPVSGAVGGTVTIKCQASEDISSNLAWYQQKPGQPPKLLIFPASNLASGVSSRFKGSGSGTEFTLTISDLECADAATYYCQGGYWTSTSNFGNGFGGGTEVVVK
notes: Rabbit variable regions joined to a human IgG1 constant region with N297A (Eu numbering) and a human kappa constant region
[7]
  EC50: 0.895 nM
[11]
  Reporter gene cell activity IC50 (SEAP, HEK-Blue CD40L cells stimulated with CD40L): 0.221 nM
[12]
  EC50: 0.608 nM
